What all share (assay): native gel or EMSA
Background: A gel shift assay detects complexes by their altered migration in electrophoresis.

The target in assay [1] is ankyrin solubilized from MDCK cells (dog (endogenous in MDCK)).
Assay [2] concerns the target fodrin solubilized from MDCK cells (alpha- and beta-subunits) (dog (endogenous in MDCK)).
The target in assay [3] is purified human erythrocyte spectrin heterotetramers (human, UniProt P02549 1-2419; P11277 1-2137).

The text below walks through data of article PMC2115384 (The Journal of Cell Biology, 1989).

Some results are limits rather than exact numbers.

purified human erythrocyte spectrin heterotetramers, sequence (P02549 whole entry, chain 1 of 2): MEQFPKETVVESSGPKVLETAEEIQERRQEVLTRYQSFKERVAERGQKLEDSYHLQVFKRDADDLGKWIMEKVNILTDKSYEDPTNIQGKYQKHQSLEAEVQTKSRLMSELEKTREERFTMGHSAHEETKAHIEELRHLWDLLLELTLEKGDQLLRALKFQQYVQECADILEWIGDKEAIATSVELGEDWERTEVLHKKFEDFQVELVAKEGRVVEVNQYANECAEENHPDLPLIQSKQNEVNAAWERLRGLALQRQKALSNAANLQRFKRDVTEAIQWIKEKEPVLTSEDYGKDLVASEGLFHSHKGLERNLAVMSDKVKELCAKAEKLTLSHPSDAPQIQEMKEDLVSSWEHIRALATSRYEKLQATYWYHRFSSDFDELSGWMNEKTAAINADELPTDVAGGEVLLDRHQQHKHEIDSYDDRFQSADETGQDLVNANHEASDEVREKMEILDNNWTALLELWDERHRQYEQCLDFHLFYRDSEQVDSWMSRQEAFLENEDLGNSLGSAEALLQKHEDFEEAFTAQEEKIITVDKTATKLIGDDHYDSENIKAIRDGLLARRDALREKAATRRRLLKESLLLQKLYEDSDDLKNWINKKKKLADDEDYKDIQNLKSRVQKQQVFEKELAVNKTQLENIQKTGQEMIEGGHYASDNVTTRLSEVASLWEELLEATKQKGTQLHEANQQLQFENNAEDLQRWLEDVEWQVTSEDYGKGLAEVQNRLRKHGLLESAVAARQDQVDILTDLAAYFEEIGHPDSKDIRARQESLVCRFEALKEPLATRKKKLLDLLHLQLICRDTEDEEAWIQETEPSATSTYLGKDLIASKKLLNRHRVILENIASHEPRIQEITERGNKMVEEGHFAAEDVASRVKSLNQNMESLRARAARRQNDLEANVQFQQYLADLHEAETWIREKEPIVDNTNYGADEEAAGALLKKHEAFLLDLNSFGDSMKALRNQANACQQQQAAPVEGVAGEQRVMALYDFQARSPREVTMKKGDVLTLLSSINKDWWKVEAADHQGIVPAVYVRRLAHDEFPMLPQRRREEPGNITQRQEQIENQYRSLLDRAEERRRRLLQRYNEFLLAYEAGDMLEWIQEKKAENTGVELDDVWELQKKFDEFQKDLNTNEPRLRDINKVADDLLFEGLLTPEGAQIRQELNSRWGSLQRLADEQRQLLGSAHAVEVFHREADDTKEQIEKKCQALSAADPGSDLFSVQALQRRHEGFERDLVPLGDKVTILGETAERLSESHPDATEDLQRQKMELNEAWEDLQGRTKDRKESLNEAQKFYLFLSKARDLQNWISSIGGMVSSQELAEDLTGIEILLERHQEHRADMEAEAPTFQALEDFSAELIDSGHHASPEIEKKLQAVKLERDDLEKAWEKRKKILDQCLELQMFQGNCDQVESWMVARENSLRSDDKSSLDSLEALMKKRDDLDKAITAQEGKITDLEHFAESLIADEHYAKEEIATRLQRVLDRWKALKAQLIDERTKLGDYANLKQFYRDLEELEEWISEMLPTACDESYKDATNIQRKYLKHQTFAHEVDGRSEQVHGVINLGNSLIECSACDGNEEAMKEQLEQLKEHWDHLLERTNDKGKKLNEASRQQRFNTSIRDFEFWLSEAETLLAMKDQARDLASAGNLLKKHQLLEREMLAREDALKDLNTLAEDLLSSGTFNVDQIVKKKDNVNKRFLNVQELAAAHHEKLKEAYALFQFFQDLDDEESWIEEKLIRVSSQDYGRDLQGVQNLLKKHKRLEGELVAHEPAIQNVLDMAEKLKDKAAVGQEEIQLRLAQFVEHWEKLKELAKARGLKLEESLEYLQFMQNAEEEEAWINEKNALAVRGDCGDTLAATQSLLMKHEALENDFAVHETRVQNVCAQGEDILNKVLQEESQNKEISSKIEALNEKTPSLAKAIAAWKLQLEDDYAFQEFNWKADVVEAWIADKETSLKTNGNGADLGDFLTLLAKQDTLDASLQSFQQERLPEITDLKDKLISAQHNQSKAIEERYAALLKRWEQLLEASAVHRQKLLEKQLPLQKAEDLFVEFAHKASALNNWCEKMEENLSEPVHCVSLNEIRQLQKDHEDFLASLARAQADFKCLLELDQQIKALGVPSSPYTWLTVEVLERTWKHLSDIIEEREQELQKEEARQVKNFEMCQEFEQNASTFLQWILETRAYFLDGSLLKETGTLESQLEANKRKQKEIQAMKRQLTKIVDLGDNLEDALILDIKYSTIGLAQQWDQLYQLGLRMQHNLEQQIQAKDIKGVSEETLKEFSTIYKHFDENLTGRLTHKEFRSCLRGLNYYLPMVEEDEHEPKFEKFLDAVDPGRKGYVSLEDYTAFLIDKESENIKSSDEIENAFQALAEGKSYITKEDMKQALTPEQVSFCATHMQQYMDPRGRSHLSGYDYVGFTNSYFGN
purified human erythrocyte spectrin heterotetramers, sequence (P11277 whole entry, chain 2 of 2): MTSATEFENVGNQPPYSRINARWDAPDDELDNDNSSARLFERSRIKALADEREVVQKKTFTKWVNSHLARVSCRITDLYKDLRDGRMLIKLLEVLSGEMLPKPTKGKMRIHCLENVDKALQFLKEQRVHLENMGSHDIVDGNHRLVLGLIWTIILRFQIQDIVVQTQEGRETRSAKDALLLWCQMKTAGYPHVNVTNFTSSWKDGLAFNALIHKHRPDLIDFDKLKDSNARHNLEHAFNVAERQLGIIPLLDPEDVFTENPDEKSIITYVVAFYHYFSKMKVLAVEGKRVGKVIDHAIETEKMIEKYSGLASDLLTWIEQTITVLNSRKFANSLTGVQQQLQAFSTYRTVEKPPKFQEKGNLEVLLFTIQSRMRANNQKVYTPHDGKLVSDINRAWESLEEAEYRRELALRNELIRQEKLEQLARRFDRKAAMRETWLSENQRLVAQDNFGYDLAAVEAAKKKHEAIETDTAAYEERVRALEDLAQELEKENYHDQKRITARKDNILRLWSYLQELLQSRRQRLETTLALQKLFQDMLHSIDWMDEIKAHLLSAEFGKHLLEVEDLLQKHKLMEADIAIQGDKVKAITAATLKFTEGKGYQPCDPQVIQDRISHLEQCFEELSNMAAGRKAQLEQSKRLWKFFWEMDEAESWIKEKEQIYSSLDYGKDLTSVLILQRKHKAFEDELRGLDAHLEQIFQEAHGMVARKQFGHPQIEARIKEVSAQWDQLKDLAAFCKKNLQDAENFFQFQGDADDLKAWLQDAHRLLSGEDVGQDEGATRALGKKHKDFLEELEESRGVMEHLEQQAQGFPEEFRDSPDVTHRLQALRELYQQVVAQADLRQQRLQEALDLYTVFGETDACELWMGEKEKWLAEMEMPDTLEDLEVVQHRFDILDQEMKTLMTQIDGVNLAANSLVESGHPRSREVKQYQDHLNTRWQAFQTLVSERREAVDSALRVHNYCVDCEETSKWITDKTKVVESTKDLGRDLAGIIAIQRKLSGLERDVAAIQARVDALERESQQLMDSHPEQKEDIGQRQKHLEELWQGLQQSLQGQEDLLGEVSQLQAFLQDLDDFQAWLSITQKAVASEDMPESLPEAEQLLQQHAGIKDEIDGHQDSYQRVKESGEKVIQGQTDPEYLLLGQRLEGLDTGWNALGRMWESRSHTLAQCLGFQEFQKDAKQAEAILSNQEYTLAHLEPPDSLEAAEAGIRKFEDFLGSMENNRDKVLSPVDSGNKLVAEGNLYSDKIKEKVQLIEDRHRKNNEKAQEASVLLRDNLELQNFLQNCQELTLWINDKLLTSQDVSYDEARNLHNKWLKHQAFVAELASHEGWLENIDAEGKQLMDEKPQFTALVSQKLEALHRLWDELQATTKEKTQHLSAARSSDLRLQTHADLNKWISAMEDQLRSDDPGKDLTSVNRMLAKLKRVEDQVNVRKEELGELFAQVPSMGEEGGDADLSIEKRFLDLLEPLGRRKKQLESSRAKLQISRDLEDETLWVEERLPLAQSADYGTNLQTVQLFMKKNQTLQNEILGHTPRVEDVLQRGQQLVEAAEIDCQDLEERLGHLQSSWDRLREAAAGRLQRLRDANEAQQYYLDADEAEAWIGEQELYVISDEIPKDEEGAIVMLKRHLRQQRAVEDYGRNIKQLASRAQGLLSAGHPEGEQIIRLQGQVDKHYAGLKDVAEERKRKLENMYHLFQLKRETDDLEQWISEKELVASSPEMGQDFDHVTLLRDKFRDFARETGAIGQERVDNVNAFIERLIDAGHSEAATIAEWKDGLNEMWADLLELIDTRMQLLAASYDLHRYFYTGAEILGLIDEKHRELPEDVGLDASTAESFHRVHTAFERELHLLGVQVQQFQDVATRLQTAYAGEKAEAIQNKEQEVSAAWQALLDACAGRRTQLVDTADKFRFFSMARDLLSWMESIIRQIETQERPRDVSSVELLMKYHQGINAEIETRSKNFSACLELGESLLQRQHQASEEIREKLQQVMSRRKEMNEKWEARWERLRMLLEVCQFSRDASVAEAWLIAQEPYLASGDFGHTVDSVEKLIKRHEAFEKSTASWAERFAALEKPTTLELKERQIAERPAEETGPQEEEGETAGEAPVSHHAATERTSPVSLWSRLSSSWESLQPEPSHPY

Turning to “Na+,K+-ATPase solubilized from MDCK cells (alpha- and beta-subunits) (from UniProt P50997 1-1021; P06583 1-303) (complex)”, the percent of solubilized Na+,K+-ATPase comigrating with ankyrin and fodrin in assay [1] and in assay [2] was more than 80% each time.

B1: purified human erythrocyte ankyrin (natural protein, UniProt P16157 1-1881, looked up)
chain: MPYSVGFREADAATSFLRAARSGNLDKALDHLRNGVDINTCNQNGLNGLHLASKEGHVKMVVELLHKEIILETTTKKGNTALHIAALAGQDEVVRELVNYGANVNAQSQKGFTPLYMAAQENHLEVVKFLLENGANQNVATEDGFTPLAVALQQGHENVVAHLINYGTKGKVRLPALHIAARNDDTRTAAVLLQNDPNPDVLSKTGFTPLHIAAHYENLNVAQLLLNRGASVNFTPQNGITPLHIASRRGNVIMVRLLLDRGAQIETKTKDELTPLHCAARNGHVRISEILLDHGAPIQAKTKNGLSPIHMAAQGDHLDCVRLLLQYDAEIDDITLDHLTPLHVAAHCGHHRVAKVLLDKGAKPNSRALNGFTPLHIACKKNHVRVMELLLKTGASIDAVTESGLTPLHVASFMGHLPIVKNLLQRGASPNVSNVKVETPLHMAARAGHTEVAKYLLQNKAKVNAKAKDDQTPLHCAARIGHTNMVKLLLENNANPNLATTAGHTPLHIAAREGHVETVLALLEKEASQACMTKKGFTPLHVAAKYGKVRVAELLLERDAHPNAAGKNGLTPLHVAVHHNNLDIVKLLLPRGGSPHSPAWNGYTPLHIAAKQNQVEVARSLLQYGGSANAESVQGVTPLHLAAQEGHAEMVALLLSKQANGNLGNKSGLTPLHLVAQEGHVPVADVLIKHGVMVDATTRMGYTPLHVASHYGNIKLVKFLLQHQADVNAKTKLGYSPLHQAAQQGHTDIVTLLLKNGASPNEVSSDGTTPLAIAKRLGYISVTDVLKVVTDETSFVLVSDKHRMSFPETVDEILDVSEDEGEELISFKAERRDSRDVDEEKELLDFVPKLDQVVESPAIPRIPCAMPETVVIRSEEQEQASKEYDEDSLIPSSPATETSDNISPVASPVHTGFLVSFMVDARGGSMRGSRHNGLRVVIPPRTCAAPTRITCRLVKPQKLSTPPPLAEEEGLASRIIALGPTGAQFLSPVIVEIPHFASHGRGDRELVVLRSENGSVWKEHRSRYGESYLDQILNGMDEELGSLEELEKKRVCRIITTDFPLYFVIMSRLCQDYDTIGPEGGSLKSKLVPLVQATFPENAVTKRVKLALQAQPVPDELVTKLLGNQATFSPIVTVEPRRRKFHRPIGLRIPLPPSWTDNPRDSGEGDTTSLRLLCSVIGGTDQAQWEDITGTTKLVYANECANFTTNVSARFWLSDCPRTAEAVNFATLLYKELTAVPYMAKFVIFAKMNDPREGRLRCYCMTDDKVDKTLEQHENFVEVARSRDIEVLEGMSLFAELSGNLVPVKKAAQQRSFHFQSFRENRLAMPVKVRDSSREPGGSLSFLRKAMKYEDTQHILCHLNITMPPCAKGSGAEDRRRTPTPLALRYSILSESTPGSLSGTEQAEMKMAVISEHLGLSWAELARELQFSVEDINRIRVENPNSLLEQSVALLNLWVIREGQNANMENLYTALQSIDRGEIVNMLEGSGRQSRNLKPDRRHTDRDYSLSPSQMNGYSSLQDELLSPASLGCALSSPLRADQYWNEVAVLDAIPLAATEHDTMLEMSDMQVWSAGLTPSLVTAEDSSLECSKAEDSDATGHEWKLEGALSEEPRGPELGSLELVEDDTVDSDATNGLIDLLEQEEGQRSEEKLPGSKRQDDATGAGQDSENEVSLVSGHQRGQARITHSPTVSQVTERSQDRLQDWDADGSIVSYLQDAAQGSWQEEVTQGPHSFQGTSTMTEGLEPGGSQEYEKVLVSVSEHTWTEQPEAESSQADRDRRQQGQEEQVQEAKNTFTQVVQGNEFQNIPGEQVTEEQFTDEQGNIVTKKIIRKVVRQIDLSSADAAQEHEEVTVEGPLEDPSELEVDIDYFMKHSKDHTSTPNP
Regarding B1, the binding result in assay [3] is reported as “binds”.
